Like-named read-outs stand apart in the source and are kept apart here.
B1: MBP-SV40 Agno (full length SV40 agnoprotein fused to MBP) (natural protein)
chain: MVLRRLSRQASVKVRRSWTESKKTAQRLFVFVLELLLQFCEGEDTVDGKRKKPERLTEKPES
B2: MBP-Agno (17-71) (domain or fragment)
chain: TWSGTKKRAQRILIFLLEFLLDFCTGEDSVDGKKRQRHSGLTEQTYSALPEPKAT

Columns and labels:
[1] = target: the molecule itself
[2] = target: the molecule itself; test: SDS-resistant complexes on SDS-polyacrylamide gel, coomassie staining

| Protein | binding result [1] | binding result [2] |
| --- | --- | --- |
| B1 | binds | – |
| B2 | – | binds |
